According to the Human Domainome abundance scans (Beltran et al. 2025):
± gives the uncertainty stated by the source.

Assay: abundance fitness (aPCA) (normalised: wild type 0, dead -1); higher = more abundant; growth selection in yeast, the domain comes from the species named
Settings: Homo sapiens

Question: With “Lipoamide acyltransferase component of branched-chain alpha-keto acid dehydrogenase complex, mitochondrial G193E, P11182” as the substance, how does the abundance fitness read?
Answer: Its abundance fitness is -0.706 ± 0.067.

Question: For “Lipoamide acyltransferase component of branched-chain alpha-keto acid dehydrogenase complex, mitochondrial R178H, P11182”, which abundance fitness is on record?
Answer: Its abundance fitness is -0.1 ± 0.072.

Question: Which abundance fitness does the source give for “Lipoamide acyltransferase component of branched-chain alpha-keto acid dehydrogenase complex, mitochondrial S189F, P11182” here?
Answer: The abundance fitness was -0.343 ± 0.058.

Question: Which abundance fitness does the source give for “Lipoamide acyltransferase component of branched-chain alpha-keto acid dehydrogenase complex, mitochondrial G198I, P11182” here?
Answer: Its abundance fitness is -1.24 ± 0.23.

Question: For “Lipoamide acyltransferase component of branched-chain alpha-keto acid dehydrogenase complex, mitochondrial K187V, P11182”, which abundance fitness is on record?
Answer: Its abundance fitness is -0.139 ± 0.099.

Question: With “Lipoamide acyltransferase component of branched-chain alpha-keto acid dehydrogenase complex, mitochondrial V191L, P11182” as the substance, how does the abundance fitness read?
Answer: The abundance fitness was -0.117 ± 0.047.

Question: For “Lipoamide acyltransferase component of branched-chain alpha-keto acid dehydrogenase complex, mitochondrial N185K, P11182”, which abundance fitness is on record?
Answer: The abundance fitness was 0.016 ± 0.1.

Question: With “Lipoamide acyltransferase component of branched-chain alpha-keto acid dehydrogenase complex, mitochondrial K187M, P11182” as the substance, how does the abundance fitness read?
Answer: The abundance fitness was -0.075 ± 0.12.

Question: For “Lipoamide acyltransferase component of branched-chain alpha-keto acid dehydrogenase complex, mitochondrial K211R, P11182”, which abundance fitness is on record?
Answer: The abundance fitness was 0.043 ± 0.037.

Question: Which abundance fitness does the source give for “Lipoamide acyltransferase component of branched-chain alpha-keto acid dehydrogenase complex, mitochondrial Q212V, P11182” here?
Answer: Its abundance fitness is -0.075 ± 0.038.

Question: Which abundance fitness does the source give for “Lipoamide acyltransferase component of branched-chain alpha-keto acid dehydrogenase complex, mitochondrial N207S, P11182” here?
Answer: Its abundance fitness is -0.017 ± 0.044.

Question: With “Lipoamide acyltransferase component of branched-chain alpha-keto acid dehydrogenase complex, mitochondrial L206C, P11182” as the substance, how does the abundance fitness read?
Answer: Its abundance fitness is -0.555 ± 0.34.

Question: Which abundance fitness does the source give for “Lipoamide acyltransferase component of branched-chain alpha-keto acid dehydrogenase complex, mitochondrial N184G, P11182” here?
Answer: Its abundance fitness is -0.294 ± 0.093.

Question: For “Lipoamide acyltransferase component of branched-chain alpha-keto acid dehydrogenase complex, mitochondrial T174K, P11182”, which abundance fitness is on record?
Answer: The abundance fitness was -0.379 ± 0.063.
